In publication PMC2967539:

Target: human dipeptidyl peptidase IV (human) (UniProt P27487)
Chain of UniProt P27487 (P27487 whole entry): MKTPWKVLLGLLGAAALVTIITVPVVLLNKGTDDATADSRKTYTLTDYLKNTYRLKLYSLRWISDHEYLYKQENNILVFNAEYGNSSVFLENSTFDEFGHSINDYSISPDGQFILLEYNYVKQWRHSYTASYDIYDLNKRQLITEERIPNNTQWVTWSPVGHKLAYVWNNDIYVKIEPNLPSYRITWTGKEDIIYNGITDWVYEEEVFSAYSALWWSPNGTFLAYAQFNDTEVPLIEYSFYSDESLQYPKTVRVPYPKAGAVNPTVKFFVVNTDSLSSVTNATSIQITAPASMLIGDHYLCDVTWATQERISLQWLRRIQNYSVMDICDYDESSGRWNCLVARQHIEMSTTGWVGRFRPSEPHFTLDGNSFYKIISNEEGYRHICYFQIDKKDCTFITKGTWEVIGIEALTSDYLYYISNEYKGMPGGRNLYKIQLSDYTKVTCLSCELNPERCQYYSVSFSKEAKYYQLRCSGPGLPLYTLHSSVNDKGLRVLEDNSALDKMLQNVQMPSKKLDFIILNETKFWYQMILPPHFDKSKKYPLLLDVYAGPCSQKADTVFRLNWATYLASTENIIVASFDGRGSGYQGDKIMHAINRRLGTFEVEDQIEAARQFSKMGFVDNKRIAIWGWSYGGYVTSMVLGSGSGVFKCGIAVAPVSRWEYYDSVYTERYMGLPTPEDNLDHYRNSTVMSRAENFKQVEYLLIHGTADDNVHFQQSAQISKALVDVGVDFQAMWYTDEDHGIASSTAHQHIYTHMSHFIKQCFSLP

“Tat-1-86 protein (Immuno-Diagnostics) (from UniProt P04610 1-86) (natural protein)” was tested, and the cleavage of GLP1 (31.25 uM) by purified DPPIV (16 nM) in the presence of 1 uM Tat-1-86, MALDI-TOF mass spectrometry, after 5 min at 37 °C (all GLP1 cleaved within 5 min without Tat) was 40%.
